This assay has as its target T1, human PD-L1 expressed at the cell membrane (human, UniProt Q9NZQ7 19-290).
T1 construct: whole, on cells; also called programmed death-ligand 1; cellular PD-L1 protein
Nature of the assay: flow cytometry (FACS) titration on 293T cells stably transfected with human PD-L1, anti-mouse IgG PE detection. Background: In flow cytometry, cells or beads pass a laser one at a time.

T1 sequence (Q9NZQ7 19-290): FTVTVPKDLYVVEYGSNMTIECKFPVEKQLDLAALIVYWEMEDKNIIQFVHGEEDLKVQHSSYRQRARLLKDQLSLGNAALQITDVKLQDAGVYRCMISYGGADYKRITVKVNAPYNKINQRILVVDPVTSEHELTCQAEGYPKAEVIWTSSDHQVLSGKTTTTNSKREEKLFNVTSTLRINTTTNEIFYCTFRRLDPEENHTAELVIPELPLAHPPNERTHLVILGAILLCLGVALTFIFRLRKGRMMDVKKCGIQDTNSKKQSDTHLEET

B1: anti-PD-L1 mouse monoclonal antibody Q106 (antibody, V domains shown)
VH: DVQLQESGPGLVKPSQSLSLTCSVTGYSITSDYAWNWIRQFPGDTLEWMGYINYSGSSTYNPSLISRLSITRDTSKNQFFLQLNSVTSEDTATYYCARGPDWDWYFDYWGQGTTLTVSS
VL: DIVLTQSPATLSVTPGDSVSLSCRASQSISNNLHWYQQKSHESPRLLIKYASQSISGIPSRFSGSGSGTDFTLSINGVETEDFGMYFCQQTNSWPTFGGGTKLEIK
notes: also called PD-L1 antibody Q106
What is called EC50 is the concentration that produces a half-maximal response. A high value points to a less potent agent. In the case of B1, the concentration giving a half-maximal response (EC50) was found to be 0.3 nM.

The record behind these values is patent US20200165340A1 (XIANGTAN TENGHUA BIOSCIENCE, published 2020).
